# PMC12164958
# Columns and labels:
# [1] = target: UBR7 (construct of the Co-IP assays); assay: Co-IP (IP: Anti-Flag, blot Anti-HA), band intensity; details: parent: 1.00
# [2] = target: UBR7 (construct of the Co-IP assays); assay: Co-IP (IP: Anti-Flag), quantified band intensity, bar chart of three replicates; details: parent: est. 1.0; read off a plot
# UBR7-nLuc = assay: LCI assay (luciferase complementation imaging) in N. benthamiana leaves; details: Luminescence signals were recorded at 48 hpi; parent: est. 1.0; read off a plot
# MBP-tagged UBR7 [3] = assay: MBP pull-down (blot Anti-His), band intensity; details: parent: 1.00
# MBP-tagged UBR7 [4] = assay: MBP pull-down, quantified band intensity, bar chart of three replicates; details: parent: est. 1.0; read off a plot
ratio to parent [1],ratio to parent [2],ratio to parent (UBR7-nLuc),ratio to parent (MBP-tagged UBR7 [3]),ratio to parent (MBP-tagged UBR7 [4]),Substance
0.55,0.6,–,–,–,AL7-3×Flag S174A
–,–,1.6,–,–,cLuc-AL7 S174D

# Further lines, the substance ahead of its results:
Substance,ratio to parent [1],ratio to parent [2],ratio to parent (UBR7-nLuc),ratio to parent (MBP-tagged UBR7 [3]),ratio to parent (MBP-tagged UBR7 [4])
cLuc-AL7 S174A,–,–,0.98,–,–
AL7-3×Flag S174D,1.63,1.9,–,–,–
His-tagged AL7 S174D,–,–,–,3.18,3.1
His-tagged AL7 S174A,–,–,–,0.95,0.72
